In PMC8889552:
Values joined by “and” are separate entries in the source; they are usually repeats but may differ in a detail not shown here. Equal entries are not always repeated.

Experiments:
[1] = biological target: recombinant HIV Gag (Pr55^Gag) (HIV); assay: charge detection mass spectrometry
[2] = biological target: recombinant HIV Gag (Pr55^Gag) (HIV); assay: SPR

**Q.** With “recombinant HIV Gag (Pr55^Gag) (natural protein)” as the substance, how does the stoichiometry N [1] read?
**A.** 125 mers and 220 mers

**Q.** What about the fold strengthening of homodimerization (SPR Kd) with Ca^2+ [2] of the same substance?
**A.** < 7 fold
